Measured values as given in PMC9124873 (BioImpacts : BI, 2021).

Assays:
[1] = molecular target: heavy chain of ranibizumab; assay: ELISA
[2] = molecular target: light chain of ranibizumab; assay: ELISA

binding result [1]: no binding | binding result [2]: no binding
B1: recombinant human VEGF-A protein (ligand)
chain: APMAEGGGQNHHEVVKFMDVYQRSYCHPIETLVDIFQEYPDEIEYIFKPSCVPLMRCGGCCNDEGLECVPTEESNITMQIMRIKPHQGQHIGEMSFLQHNKCECRPKKDRARQENPCGPCSERRKHLFVQDPQTCKCSCKNTDSRCKARQLELNERTCRCDKPRR
